The values below come from article PMC11969024 (2025).

B1: peptide HD2 (from tick evasin EVA4) / CCL19 (biotinylated, synthetic) (parent complex)
chain 1: EEDDYTAYAPLTCYFT
chain 2: GTNDAEDCCLSVTQKPIPGYIVRNFHYLLIKDGCRVPAVVFTTLRGRQLCAPPDQPWVERIIQRLQRTSAKMKRRSS
B2: peptide HD2 (from tick evasin EVA4) / CXCL13 (biotinylated, synthetic) (parent complex)
chain 1: EEDDYTAYAPLTCYFT
chain 2: VLEVYYTSLRCRCVQESSVFIPRRFIDRIQILPRGNGCPRKEIIVWKKNKSIVCVDPQAEWIQRMMEVLRKRSSSTLPVPVFKRKIP

Variants of B1 are the subject of one assay.
On to chain 1 T16I, for which the enrichment is 0.728 log2 (difference from the parental peptide).
Consider chain 1 A9P, for which the enrichment was -3.61 log2 (difference from the parental peptide).
Turning to chain 1 A9W, the enrichment was 2 log2 (difference from the parental peptide).
As for chain 1 Y14M, the enrichment is -7.94 log2 (difference from the parental peptide).
In the case of chain 1 Y14H, the enrichment was -4.96 log2 (difference from the parental peptide).
Regarding chain 1 Y14I, the enrichment is -6.25 log2 (difference from the parental peptide).
As for chain 1 Y14W, the enrichment is -2.78 log2 (difference from the parental peptide).
Still for that read-out and setting: to chain 1 Y5L belongs -3.97 log2 (difference from the parental peptide).
As to chain 1 T12S, the enrichment is -6.54 log2 (difference from the parental peptide).
Take chain 1 T12K: the enrichment is -6.56 log2 (difference from the parental peptide).
With chain 1 T12R, the enrichment is -3.3 log2 (difference from the parental peptide).
As to chain 1 T12N, the enrichment is -6.73 log2 (difference from the parental peptide).
For chain 1 L11V, the enrichment is -0.0786 log2 (difference from the parental peptide).
Turning to chain 1 L11F, the enrichment is -0.375 log2 (difference from the parental peptide).
Consider chain 1 L11A, for which the enrichment was -6.47 log2 (difference from the parental peptide).
Still for that read-out and setting: the same measure for chain 1 E1W: 3.38 log2 (difference from the parental peptide); for chain 1 T6Q: -0.425 log2 (difference from the parental peptide); for chain 1 T6P: -4.5 log2 (difference from the parental peptide).
On the same count and under the same terms, the same measure for chain 1 T6V: -2.16 log2 (difference from the parental peptide); for chain 1 T6F: 2.62 log2 (difference from the parental peptide); for chain 1 D3P: -6.49 log2 (difference from the parental peptide).
Still for that read-out and setting: to chain 1 C13L belongs -7.7 log2 (difference from the parental peptide); to chain 1 C13N, -2.93 log2 (difference from the parental peptide).
For chain 1 A7T, the enrichment is -0.798 log2 (difference from the parental peptide).
With chain 1 A7F, the enrichment is 1.3 log2 (difference from the parental peptide).
chain 1 A7P: the enrichment was -4.29 log2 (difference from the parental peptide).
Regarding chain 1 A7R, the enrichment was -0.336 log2 (difference from the parental peptide).
For chain 1 A7Q, the enrichment is 0.522 log2 (difference from the parental peptide).
On to chain 1 E2C, for which the enrichment is -4.17 log2 (difference from the parental peptide).
On to chain 1 E2W, for which the enrichment was 3.67 log2 (difference from the parental peptide).
The same measure, in the same setting: the same measure for chain 1 F15G: -8.74 log2 (difference from the parental peptide); for chain 1 F15A: -5.34 log2 (difference from the parental peptide).
With chain 1 F15D, the enrichment is -7.57 log2 (difference from the parental peptide).

Variants of B2 are the subject of the next assay.
Regarding chain 1 E2T, the enrichment was -3.42 log2 (difference from the parental peptide).
chain 1 E2L: the enrichment is -1.53 log2 (difference from the parental peptide).
In the case of chain 1 E2N, the enrichment was -3.27 log2 (difference from the parental peptide).
The same measure, in the same setting: to chain 1 E2A belongs -1.7 log2 (difference from the parental peptide); to chain 1 E2P, -4.82 log2 (difference from the parental peptide); to chain 1 Y14T, -6.13 log2 (difference from the parental peptide).
On the same count and under the same terms, the same measure for chain 1 Y14M: -7.75 log2 (difference from the parental peptide).
With chain 1 Y14W, the enrichment is -2.89 log2 (difference from the parental peptide).
On to chain 1 Y14V, for which the enrichment was -9.22 log2 (difference from the parental peptide).
On to chain 1 Y14F, for which the enrichment was -0.356 log2 (difference from the parental peptide).
With chain 1 P10W, the enrichment was -7.62 log2 (difference from the parental peptide).
Take chain 1 P10L: the enrichment was -9.28 log2 (difference from the parental peptide).
For chain 1 P10A, the enrichment is -4.03 log2 (difference from the parental peptide).
chain 1 P10E: the enrichment is -2.35 log2 (difference from the parental peptide).
Still for that read-out and setting: to chain 1 P10V belongs -9.15 log2 (difference from the parental peptide); to chain 1 P10H, -5.73 log2 (difference from the parental peptide); to chain 1 Y5I, -1.67 log2 (difference from the parental peptide).
Turning to chain 1 Y5V, the enrichment was -2.43 log2 (difference from the parental peptide).
Regarding chain 1 Y5W, the enrichment was 5.05 log2 (difference from the parental peptide).
Still for that read-out and setting: to chain 1 Y5S belongs -3.07 log2 (difference from the parental peptide).
As for chain 1 Y5F, the enrichment is -0.242 log2 (difference from the parental peptide).
For chain 1 D3Q, the enrichment is -3.76 log2 (difference from the parental peptide).
For chain 1 D3Y, the enrichment was -2.28 log2 (difference from the parental peptide).
On the same count and under the same terms, the same measure for chain 1 D3W: -0.789 log2 (difference from the parental peptide); for chain 1 D3T: -4.07 log2 (difference from the parental peptide).
As for chain 1 D3V, the enrichment is -5.31 log2 (difference from the parental peptide).
On to chain 1 D3G, for which the enrichment was -5.23 log2 (difference from the parental peptide).
As for chain 1 D3A, the enrichment is -5.8 log2 (difference from the parental peptide).
Same read-out and setting: to chain 1 E1I belongs -1.63 log2 (difference from the parental peptide).
For chain 1 E1P, the enrichment is -3.73 log2 (difference from the parental peptide).
Still for that read-out and setting: the same measure for chain 1 E1R: -5.75 log2 (difference from the parental peptide).
As to chain 1 E1T, the enrichment was -1.65 log2 (difference from the parental peptide).
Take chain 1 E1Q: the enrichment is -0.204 log2 (difference from the parental peptide).
Same read-out and setting: to chain 1 E1V belongs -2.3 log2 (difference from the parental peptide); to chain 1 E1G, -1.69 log2 (difference from the parental peptide).
As for chain 1 E1H, the enrichment is -3.17 log2 (difference from the parental peptide).
As to chain 1 E1A, the enrichment is -0.971 log2 (difference from the parental peptide).
On to chain 1 E1L, for which the enrichment was -1.96 log2 (difference from the parental peptide).
On the same count and under the same terms, to chain 1 F15V belongs -2.57 log2 (difference from the parental peptide).
chain 1 F15G: the enrichment is -9.13 log2 (difference from the parental peptide).
As to chain 1 F15E, the enrichment was -7.7 log2 (difference from the parental peptide).
Same read-out and setting: the same measure for chain 1 F15Q: -6.18 log2 (difference from the parental peptide).
On the same count and under the same terms, to chain 1 F15Y belongs -0.776 log2 (difference from the parental peptide); to chain 1 F15M, -4.67 log2 (difference from the parental peptide); to chain 1 F15T, -5.1 log2 (difference from the parental peptide).
For chain 1 F15A, the enrichment was -4.66 log2 (difference from the parental peptide).
For chain 1 T6V, the enrichment is -2.98 log2 (difference from the parental peptide).
Same read-out and setting: to chain 1 T6C belongs -9.9 log2 (difference from the parental peptide); to chain 1 T6Y, 3.32 log2 (difference from the parental peptide).
chain 1 T6W: the enrichment is 5.97 log2 (difference from the parental peptide).
Consider chain 1 T6R, for which the enrichment is -1.88 log2 (difference from the parental peptide).
For the variant chain 1 T6I, the enrichment is -3.55 log2 (difference from the parental peptide).
On to chain 1 T6S, for which the enrichment was 2.15 log2 (difference from the parental peptide).
As for chain 1 T6L, the enrichment is 1.48 log2 (difference from the parental peptide).
Same read-out and setting: to chain 1 T6F belongs 1.42 log2 (difference from the parental peptide); to chain 1 A9E, 1.61 log2 (difference from the parental peptide); to chain 1 A9Q, -0.472 log2 (difference from the parental peptide).
Same read-out and setting: the same measure for chain 1 A9S: -1.23 log2 (difference from the parental peptide); for chain 1 A9T: -1.4 log2 (difference from the parental peptide).
Take chain 1 A9R: the enrichment is -4.49 log2 (difference from the parental peptide).
Consider chain 1 A9L, for which the enrichment was -0.527 log2 (difference from the parental peptide).
chain 1 A9V: the enrichment is -5.11 log2 (difference from the parental peptide).
With chain 1 A9N, the enrichment was -3.98 log2 (difference from the parental peptide).
Take chain 1 A9P: the enrichment was 2.11 log2 (difference from the parental peptide).
On the same count and under the same terms, to chain 1 A9F belongs -2.3 log2 (difference from the parental peptide); to chain 1 C13E, -6.71 log2 (difference from the parental peptide).
Turning to chain 1 C13V, the enrichment is -5.3 log2 (difference from the parental peptide).
As for chain 1 C13P, the enrichment was -7.37 log2 (difference from the parental peptide).
Regarding chain 1 C13Y, the enrichment is -6.52 log2 (difference from the parental peptide).
As to chain 1 C13I, the enrichment is -4.63 log2 (difference from the parental peptide).
As to chain 1 Y8E, the enrichment is -1.96 log2 (difference from the parental peptide).
The same measure, in the same setting: to chain 1 Y8W belongs 2.6 log2 (difference from the parental peptide).
As to chain 1 Y8D, the enrichment is 0.221 log2 (difference from the parental peptide).
For the variant chain 1 Y8H, the enrichment was -6.35 log2 (difference from the parental peptide).
For the variant chain 1 Y8V, the enrichment is -4.22 log2 (difference from the parental peptide).
Same read-out and setting: the same measure for chain 1 Y8I: -4.99 log2 (difference from the parental peptide).
On the same count and under the same terms, the same measure for chain 1 Y8F: 0.328 log2 (difference from the parental peptide); for chain 1 Y8S: -4.52 log2 (difference from the parental peptide); for chain 1 A7F: 0.877 log2 (difference from the parental peptide).
chain 1 A7L: the enrichment is 1.64 log2 (difference from the parental peptide).
On the same count and under the same terms, to chain 1 A7M belongs 3.01 log2 (difference from the parental peptide); to chain 1 A7R, -1.49 log2 (difference from the parental peptide); to chain 1 A7E, 5.25 log2 (difference from the parental peptide).
Take chain 1 A7V: the enrichment was 0.636 log2 (difference from the parental peptide).
Still for that read-out and setting: the same measure for chain 1 A7Y: 3.99 log2 (difference from the parental peptide).
Consider chain 1 A7P, for which the enrichment was 1.36 log2 (difference from the parental peptide).
Same read-out and setting: the same measure for chain 1 A7I: 0.819 log2 (difference from the parental peptide).
The same measure, in the same setting: to chain 1 A7K belongs -1.87 log2 (difference from the parental peptide).
The same measure, in the same setting: the same measure for chain 1 A7G: 1.15 log2 (difference from the parental peptide).
Take chain 1 T16I: the enrichment is -0.117 log2 (difference from the parental peptide).
Regarding chain 1 T16P, the enrichment is -0.922 log2 (difference from the parental peptide).
Consider chain 1 T16E, for which the enrichment is 1.77 log2 (difference from the parental peptide).
For chain 1 T16Y, the enrichment was -0.167 log2 (difference from the parental peptide).
On to chain 1 T16M, for which the enrichment was 0.915 log2 (difference from the parental peptide).
Regarding chain 1 T16A, the enrichment is 0.703 log2 (difference from the parental peptide).
In the case of chain 1 T16N, the enrichment is -0.837 log2 (difference from the parental peptide).
For chain 1 T16C, the enrichment is 0.44 log2 (difference from the parental peptide).
Still for that read-out and setting: the same measure for chain 1 L11C: -5.19 log2 (difference from the parental peptide); for chain 1 L11T: -3.85 log2 (difference from the parental peptide).
For chain 1 L11R, the enrichment was -5.68 log2 (difference from the parental peptide).
On to chain 1 L11M, for which the enrichment is 3.77 log2 (difference from the parental peptide).
For chain 1 T12Q, the enrichment was -3.59 log2 (difference from the parental peptide).
Consider chain 1 T12C, for which the enrichment was -5.24 log2 (difference from the parental peptide).
For the variant chain 1 T12W, the enrichment was -0.341 log2 (difference from the parental peptide).
Same read-out and setting: to chain 1 T12S belongs -6.76 log2 (difference from the parental peptide).
For chain 1 T12P, the enrichment is -5.86 log2 (difference from the parental peptide).
For chain 1 T12H, the enrichment was -5.34 log2 (difference from the parental peptide).
Regarding chain 1 T12Y, the enrichment is -0.431 log2 (difference from the parental peptide).
Turning to chain 1 T12R, the enrichment was -8.86 log2 (difference from the parental peptide).
On the same count and under the same terms, to chain 1 D4H belongs -5.54 log2 (difference from the parental peptide).
The same measure, in the same setting: the same measure for chain 1 D4A: -6.85 log2 (difference from the parental peptide).
As for chain 1 D4F, the enrichment is -4.23 log2 (difference from the parental peptide).
Regarding chain 1 D4S, the enrichment was -5.37 log2 (difference from the parental peptide).
In the case of chain 1 D4W, the enrichment is -0.19 log2 (difference from the parental peptide).
chain 1 D4V: the enrichment was -5.82 log2 (difference from the parental peptide).
In the case of chain 1 D4N, the enrichment was -3.74 log2 (difference from the parental peptide).
chain 1 D4Q: the enrichment was -2.67 log2 (difference from the parental peptide).
